Experimental data from publication doi:10.1101/2020.12.03.410779 (bioRxiv, 2020).

Molecular target: PDZ domain of mouse SNX27 (mouse, UniProt Q3UHD6 41-134)
Experiment: ITC

Kd: 700 nM
Binder: QEEWETVM [PTHR_(586-593) cargo peptide]
